Laboratory results: article PMC11900858

Assays:
[1] = target: FcRn (mouse) (UniProt Q61559)
[2] = target: FcγRIII (mouse) (UniProt P08508)
[3] = target: FcγRI (mouse) (UniProt P26151)
[4] = target: FcγRIIB (mouse) (UniProt P08101)
[5] = target: FcγRIV (mouse)
[6] = target: FcμR (mouse) (UniProt A1KXC4)
[7] = target: FcαμR (mouse) (UniProt Q2TB54)
UniProt Q2TB54, sequence (Q2TB54 36-535): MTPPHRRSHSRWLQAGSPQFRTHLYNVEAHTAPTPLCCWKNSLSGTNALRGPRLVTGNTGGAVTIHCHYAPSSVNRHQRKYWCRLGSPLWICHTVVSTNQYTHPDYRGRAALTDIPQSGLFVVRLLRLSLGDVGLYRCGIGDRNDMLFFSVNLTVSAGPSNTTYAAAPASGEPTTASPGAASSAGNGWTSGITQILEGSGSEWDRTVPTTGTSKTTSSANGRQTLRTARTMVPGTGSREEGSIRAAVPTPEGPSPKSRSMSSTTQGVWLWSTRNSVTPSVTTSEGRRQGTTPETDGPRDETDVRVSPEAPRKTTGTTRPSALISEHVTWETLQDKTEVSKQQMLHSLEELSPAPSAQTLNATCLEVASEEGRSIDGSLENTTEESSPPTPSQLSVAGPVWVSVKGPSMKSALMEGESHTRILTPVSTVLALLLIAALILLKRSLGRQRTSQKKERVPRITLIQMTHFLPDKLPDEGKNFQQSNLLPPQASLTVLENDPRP

UniProt P08508, sequence (P08508 31-261): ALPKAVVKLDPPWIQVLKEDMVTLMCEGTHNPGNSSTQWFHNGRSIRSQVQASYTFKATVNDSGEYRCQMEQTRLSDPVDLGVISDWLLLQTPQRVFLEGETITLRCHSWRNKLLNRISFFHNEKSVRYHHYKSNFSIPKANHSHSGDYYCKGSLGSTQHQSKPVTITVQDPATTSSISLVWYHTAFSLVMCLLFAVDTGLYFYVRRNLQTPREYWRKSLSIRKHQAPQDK
UniProt P26151, sequence (P26151 25-404): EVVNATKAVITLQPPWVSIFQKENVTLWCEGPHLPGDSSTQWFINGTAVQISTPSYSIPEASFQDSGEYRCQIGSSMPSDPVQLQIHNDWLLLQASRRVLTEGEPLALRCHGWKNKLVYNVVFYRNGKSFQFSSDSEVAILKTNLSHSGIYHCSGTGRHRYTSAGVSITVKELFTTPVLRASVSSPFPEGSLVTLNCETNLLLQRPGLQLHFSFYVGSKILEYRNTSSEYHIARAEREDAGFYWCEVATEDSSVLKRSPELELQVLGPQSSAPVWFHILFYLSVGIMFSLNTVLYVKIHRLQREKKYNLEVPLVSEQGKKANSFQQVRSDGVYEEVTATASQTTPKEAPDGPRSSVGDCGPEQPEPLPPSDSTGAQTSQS
UniProt Q61559, sequence (Q61559 22-365): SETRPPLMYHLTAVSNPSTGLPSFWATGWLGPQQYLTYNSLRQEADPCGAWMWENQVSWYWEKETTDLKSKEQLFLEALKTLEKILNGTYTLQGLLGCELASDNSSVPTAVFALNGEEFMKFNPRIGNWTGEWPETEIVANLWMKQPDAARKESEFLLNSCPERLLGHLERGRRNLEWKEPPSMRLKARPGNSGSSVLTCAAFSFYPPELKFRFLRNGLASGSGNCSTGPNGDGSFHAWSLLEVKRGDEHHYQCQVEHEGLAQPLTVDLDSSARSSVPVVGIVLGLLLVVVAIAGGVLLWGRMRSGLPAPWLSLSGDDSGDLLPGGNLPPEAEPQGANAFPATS
UniProt P08101, sequence (P08101 30-330): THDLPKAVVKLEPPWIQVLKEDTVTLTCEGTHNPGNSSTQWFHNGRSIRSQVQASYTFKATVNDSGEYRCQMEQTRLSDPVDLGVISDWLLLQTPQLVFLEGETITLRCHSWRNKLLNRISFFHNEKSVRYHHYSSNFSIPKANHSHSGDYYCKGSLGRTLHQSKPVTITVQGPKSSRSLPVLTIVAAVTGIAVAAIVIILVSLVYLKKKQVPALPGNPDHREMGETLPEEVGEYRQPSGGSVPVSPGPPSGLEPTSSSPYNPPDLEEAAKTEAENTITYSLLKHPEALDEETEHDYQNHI
UniProt A1KXC4, sequence (A1KXC4 17-422): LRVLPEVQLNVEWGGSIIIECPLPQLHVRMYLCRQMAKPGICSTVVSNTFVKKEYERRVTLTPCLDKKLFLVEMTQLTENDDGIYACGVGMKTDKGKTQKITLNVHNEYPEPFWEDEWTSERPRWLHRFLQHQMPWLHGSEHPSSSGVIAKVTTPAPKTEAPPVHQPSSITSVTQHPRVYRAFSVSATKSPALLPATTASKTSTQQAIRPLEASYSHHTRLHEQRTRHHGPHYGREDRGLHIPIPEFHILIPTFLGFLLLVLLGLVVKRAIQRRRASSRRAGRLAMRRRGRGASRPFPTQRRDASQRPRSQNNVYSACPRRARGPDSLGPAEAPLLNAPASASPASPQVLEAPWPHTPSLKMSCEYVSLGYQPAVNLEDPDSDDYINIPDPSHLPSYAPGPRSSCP

T15 IgG3 (murine monoclonal anti-phosphocholine antibody of the T15 idiotype, IgG3 form)
< 5%: adhesion of T15 IgG3-opsonized Spn6A pneumococci to CHO cells stably expressing the receptor (MOI 1, T15 antibody 50 μg/ml); no notable increase; anti-capsule antibody control 85% binding [1] | adhesion of T15 IgG3-opsonized Spn6A pneumococci to CHO cells stably expressing the receptor (MOI 1, T15 antibody 50 μg/ml); no notable increase; anti-capsule antibody control 85% binding [2] | adhesion of T15 IgG3-opsonized Spn6A pneumococci to CHO cells stably expressing the receptor (MOI 1, T15 antibody 50 μg/ml); no notable increase; anti-capsule antibody control 85% binding [3] | adhesion of T15 IgG3-opsonized Spn6A pneumococci to CHO cells stably expressing the receptor (MOI 1, T15 antibody 50 μg/ml); no notable increase; anti-capsule antibody control 85% binding [4] | adhesion of T15 IgG3-opsonized Spn6A pneumococci to CHO cells stably expressing the receptor (MOI 1, T15 antibody 50 μg/ml); no notable increase; anti-capsule antibody control 85% binding [5]

T15 IgM (murine monoclonal anti-phosphocholine antibody of the T15 idiotype, IgM form) (from UniProt P01592 22-159)
< 5%: adhesion of T15 IgM-opsonized Spn6A pneumococci to CHO cells stably expressing the receptor (MOI 1, T15 antibody 50 μg/ml); no notable increase; anti-capsule antibody control 85% binding [6] | adhesion of T15 IgM-opsonized Spn6A pneumococci to CHO cells stably expressing the receptor (MOI 1, T15 antibody 50 μg/ml); no notable increase; anti-capsule antibody control 85% binding [7]
